Key:
[1] = target: RCD1-SRO-TAF4 (RST) domain from Radical-Induced Cell Death1, RCD1-RST_(499-572) (UniProt Q8RY59); experiment: ITC
[2] = target: T1, RCD1-SRO-TAF4 (RST) domain from Radical-Induced Cell Death1, RCD1-RST_(499-572) (UniProt Q8RY59 499-572); experiment: ITC
T1 sequence (looked up): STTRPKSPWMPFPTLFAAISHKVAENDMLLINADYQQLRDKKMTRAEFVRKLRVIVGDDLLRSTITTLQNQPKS

| Molecule | binding result [2] | further results |
| --- | --- | --- |
| D-ANAC013_(254-274) peptide, D-enantiomer (from UniProt F4IED2 254-274) | – | fold difference in Kd against L-ANAC013 [1]: 500 fold |
| D-ANAC046_(319-338) peptide, D-enantiomer (from UniProt Q9SQQ6 319-338) | – | fold difference in Kd against L-ANAC046 [1]: 15 fold |
| D-DREB2A_(255-272) peptide, D-enantiomer (from UniProt O82132 255-272) | – | fold difference in Kd against L-DREB2A [1]: 72 fold |
| SKSACDGLDDLIFWEDLYTS (peptide, UniProt Q9SQQ6 319-338, looked up) [L-ANAC046_(319-338) peptide] | binds | – |
| SSDMFDVDELLRDLNGDD (peptide, UniProt O82132 255-272, looked up) [L-DREB2A_(255-272) peptide] | binds | – |
| NLEEDMYLEINDLMEPEPEPT (peptide, UniProt F4IED2 254-274, looked up) [L-ANAC013_(254-274) peptide] | binds | – |

Reference: doi:10.1101/2024.02.23.581681 (bioRxiv, 2024)
